The record followed here is publication PMC4776142, “Comparative evaluation of p5+14 with SAP and peptide p5 by dual-energy SPECT imaging of mice with AA amyloidosis” (Scientific Reports, 2016).

The test system of data set [1] is amyloid-free organs of WT mice. Put plainly: Dual-energy tissue biodistribution in amyloid-free WT mice. Format: in vivo, mouse. As to conditions: n = 5, SAP 24 h and p5+14 4 h post injection. Here is the method: (§1) Dual-energy comparative uptake experiments were performed in individual AA mice (5 wk post amyloid induction with AEF) and wild type mice (n = 5 per group). All SPECT/CT imaging was performed using an Inveon trimodality SPECT/PET/CT platform[37] (Siemens preclinical, Knoxville, TN). Image data were acquired and reconstructed using Inveon Acquisition Workplace (IAW) ver. 2.0.
For the comparison of ^125I-SAP and ^99mTc-p5+14, mice were administered ^125I-SAP (45 μCi, 8 μg) and 20 h thereafter received ^99mTc-p5+14 (110 μCi, 5 μg). Mice were euthanised 4 h after injection of the ^99mTc-p5+14. The image data for the low and high energy radionuclides were obtained sequentially by acquiring 60, 16-second projections in a total of 1.5 revolutions. […]
For comparison of the p5+14 and p5 peptides, mice were injected IV in the lateral tail vein with a mixture of ^125I-p5+14 (150 μCi, ~3 μg) and ^99mTc-p5 (300 μCi, ~8 μg) and the mice euthanised by an overdose of isoflurane anaesthetic 1 h post injection. […] The radioactivity in the low and high energy windows (^125I and ^99mTc, respectively) was measured using an automated Wizard 3 gamma counter (1480 Wallac Gamma Counter, Perkin Elmer) with a crossover correction from the high to low energy channel of 4.6%, applied manually. Biodistribution data were expressed as percent injected dose per gram (%ID/g) of tissue.

The target in data set [2] is T1, AA amyloid in H2/IL-6 mice (Mus musculus, UniProt P05367).
T1 construct: Systemic distribution of AA amyloid in H2/IL-6 mice; from tissue; host or cells: organs of living H2/IL-6 Balb/c mice after induction with amyloid enhancing factor
T1 sequence (P05367 20-94 limits assumed): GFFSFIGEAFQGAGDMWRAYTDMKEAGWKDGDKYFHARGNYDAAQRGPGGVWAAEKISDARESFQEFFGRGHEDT
Put plainly: Dual-energy tissue biodistribution of 125I-SAP and 99mTc-p5+14 in AA mice. The format is in vivo. Here is the method: Transgenic H2-L^d-huIL-6 Balb/c mice (H2/IL-6) constitutively express the human IL-6 transgene leading to chronic, severe inflammation and the overproduction of acute phase reactants, such as serum amyloid protein A, the precursor protein of systemic, inflammation-associated (AA) amyloidosis. Amyloid deposition was induced in 8–wk old female mice by IV injection of 100 μg of amyloid enhancing factor (AEF – an insoluble preparation of amyloid fibrils isolated from the spleen of mice with AA amyloidosis) suspended in sterile phosphate buffered saline (PBS)[34]. All animal procedures were performed in accordance with protocols approved by the University of Tennessee Animal Care and Use Committee. The University of Tennessee is an Association for Assessment and Accreditation of Laboratory Animal Care International (AAALAC-I) accredited institution.
as §1
For the comparison of ^125I-SAP and ^99mTc-p5+14, mice were administered ^125I-SAP (45 μCi, 8 μg) and 20 h thereafter received ^99mTc-p5+14 (110 μCi, 5 μg). Mice were euthanised 4 h after injection of the ^99mTc-p5+14. The image data for the low and high energy radionuclides were obtained sequentially by acquiring 60, 16-second projections in a total of 1.5 revolutions. A 1 mm-diameter aperture, five-pinhole (mouse whole body) collimator was used at 30 mm from the centre of the field of view. The image data in the appropriate energy window were reconstructed using a Maximum A Priori algorithm (MAP - 16 iterations, 6 subsets, β = 1) onto a matrix with x and y dimensions of 88 and z dimension of 312 and 0.5-mm isotropic voxels. Post hoc attenuation correction was then applied to reconstructed data using CT image data. Scatter correction was performed using a SPECT triple energy window (TEW) method.
For comparison of the p5+14 and p5 peptides, mice were injected IV in the lateral tail vein with a mixture of ^125I-p5+14 (150 μCi, ~3 μg) and ^99mTc-p5 (300 μCi, ~8 μg) and the mice euthanised by an overdose of isoflurane anaesthetic 1 h post injection. Tissues were harvested at necropsy for biodistribution measurements. Organs were also harvested from mice injected with ^125I-SAP and ^99mTc-p5+14 after SPECT/CT imaging. A small volume of tissue from each mouse was placed into a tared plastic vial and weighed. The radioactivity in the low and high energy windows (^125I and ^99mTc, respectively) was measured using an automated Wizard 3 gamma counter (1480 Wallac Gamma Counter, Perkin Elmer) with a crossover correction from the high to low energy channel of 4.6%, applied manually. Biodistribution data were expressed as percent injected dose per gram (%ID/g) of tissue.
Skewness and kurtosis statistics were used to assess the statistical assumption of normality for between-subjects comparisons and correlations. Any skewness or kurtosis statistic above an absolute value of 2.0 assumed a non-normal distribution. The assumption of homogeneity of variance was tested with Levene’s Test of Equality of Variances. Independent samples t-tests were used to compare p5+14 and SAP retention in amyloid laden organs (liver, spleen, pancreas, intestines and heart). Means and standard deviations were reported for the analyses. If a statistical assumption was violated, a non-parametric Mann-Whitney U test was used. Medians and interquartile ranges (IQR) were reported for non-parametric statistics. Pearson correlations were run to compare tissue biodistribution data (%ID/g) in all organs. […]

The mark [3] stands for this setting: AA mice 5 wk post-AEF, n = 5, 125I-SAP 45 μCi, 8 μg, 24 h post injection, crossover-corrected.

Take “125I-SAP: purified human SAP radioiodinated with 125I”: in data set [1], the “Retention in amyloid-free organs” value is “no retention”. Further, in data set [2] (setting [3]), the “Tissue biodistribution, heart, Mean ± SD” value was 0.7 ± 0.1 %ID/g; the “Tissue biodistribution, intestine, Mean ± SD” value was determined as 0.8 ± 1.1 %ID/g; the “Tissue biodistribution, liver, Mean ± SD” value came to 14.1 ± 3.5 %ID/g; the “Tissue biodistribution, pancreas, Median (Interquartile range)” value is 0.7 (0.5)[3] %ID/g. For the same substance, the “Tissue biodistribution, spleen, Mean ± SD” value in data set [2] (setting [3]) came to 23.8 ± 3.5 %ID/g. Also, the “Uptake in the spleen as compared to 99mTc-p5+14” value in data set [2] (AA mice, in each mouse studied, p < 0.001) is reported as ~ 4 fold. Moreover, the “Uptake by pancreatic AA amyloid” value in data set [2] (AA mice, 125I-SAP, 24 h post injection) is listed as below 1 %ID/g.
